According to paper PMC10681739, “High-throughput data and modeling reveal insights into the mechanisms of cooperative DNA-binding by transcription factor proteins”:

Tests used:
RUNX1 = RUNX1 (Homo sapiens, UniProt Q01196); assay: gcPBM; 2 nM RUNX1; conditions: tags: N-terminal GST (pDEST15), kept (PMC6008103); label: surface-attached array probe
ETS1:RUNX1 = ETS1:RUNX1 (Homo sapiens, UniProt P14921;Q01196 full;full); assay: gcPBM; 1 nM ETS1 + 25 nM RUNX1, anti-ETS1 signal, normalised; conditions: tags: N-terminal GST (pDEST15), kept (PMC6008103); copies: 1;1; label: surface-attached array probe
Sequence of ETS1:RUNX1 (P14921 whole entry, chain 1 of 2): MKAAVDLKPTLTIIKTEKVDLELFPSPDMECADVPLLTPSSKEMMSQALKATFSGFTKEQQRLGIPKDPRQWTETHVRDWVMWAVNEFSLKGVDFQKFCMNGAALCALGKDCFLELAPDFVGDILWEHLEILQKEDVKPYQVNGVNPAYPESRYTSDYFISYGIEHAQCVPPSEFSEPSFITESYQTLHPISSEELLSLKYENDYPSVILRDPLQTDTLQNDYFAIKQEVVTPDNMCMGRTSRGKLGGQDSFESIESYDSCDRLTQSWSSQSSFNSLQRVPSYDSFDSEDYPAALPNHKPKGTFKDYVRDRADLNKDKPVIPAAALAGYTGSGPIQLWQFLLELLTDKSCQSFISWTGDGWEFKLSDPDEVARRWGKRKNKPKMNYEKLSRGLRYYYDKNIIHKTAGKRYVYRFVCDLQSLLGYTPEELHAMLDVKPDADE
Sequence of ETS1:RUNX1 (Q01196 whole entry, chain 2 of 2): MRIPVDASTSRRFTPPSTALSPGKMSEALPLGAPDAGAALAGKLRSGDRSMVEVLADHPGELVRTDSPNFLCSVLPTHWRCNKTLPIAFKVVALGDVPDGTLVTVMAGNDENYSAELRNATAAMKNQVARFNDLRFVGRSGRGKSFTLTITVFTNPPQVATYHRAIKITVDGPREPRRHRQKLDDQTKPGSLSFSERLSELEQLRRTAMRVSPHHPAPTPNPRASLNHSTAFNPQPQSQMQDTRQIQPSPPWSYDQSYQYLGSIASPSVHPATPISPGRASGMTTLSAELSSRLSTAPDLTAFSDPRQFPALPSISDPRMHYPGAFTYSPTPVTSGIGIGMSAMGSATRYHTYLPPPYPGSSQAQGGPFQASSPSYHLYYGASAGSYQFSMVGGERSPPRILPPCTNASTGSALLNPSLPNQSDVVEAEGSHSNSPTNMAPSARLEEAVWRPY

Sequence of RUNX1 (Q01196 whole entry): as the sequence (Q01196 whole entry, chain 2 of 2) above

Row | Binder | binding signal (RUNX1) | binding signal (ETS1:RUNX1)
1 | Table S3 C row 7 (dsDNA) DNA 1: ACCCCGACGCAGCCTGGGAAGTGTAGTCCTCTCTGC DNA 2: GCAGAGAGGACTACACTTCCCAGGCTGCGTCGGGGT | 822 PBM fluorescence, median of replicate spots | 
2 | Table S2 A row 1295 (dsDNA) DNA 1: GCTCTGGGTCACACAGGATGTGGTTTTTGAAGTTTG DNA 2: CAAACTTCAAAAACCACATCCTGTGTGACCCAGAGC |  | 49000 PBM fluorescence, median of replicate spots
3 | Table S3 C row 158 (dsDNA) DNA 1: ACAAAAAAACCCTACCTTCCGCCATGTCTGGCCCGG DNA 2: CCGGGCCAGACATGGCGGAAGGTAGGGTTTTTTTGT | 847 PBM fluorescence, median of replicate spots | 
4 | Table S2 A row 1184 (dsDNA) DNA 1: GAAGCTCCCCAAACAGGATGTGGTTAGGGAGAGGGG DNA 2: CCCCTCTCCCTAACCACATCCTGTTTGGGGAGCTTC |  | 58300 PBM fluorescence, median of replicate spots
5 | Table S2 A row 1401 (dsDNA) DNA 1: GCATTTACGGGCAGGAAATGAAACCACAGAGTACAA DNA 2: TTGTACTCTGTGGTTTCATTTCCTGCCCGTAAATGC |  | 36500 PBM fluorescence, median of replicate spots
6 | Table S3 C row 142 (dsDNA) DNA 1: GCCCCTGCCCCAGAGAGGAAGTTCGGCCTCATCGAG DNA 2: CTCGATGAGGCCGAACTTCCTCTCTGGGGCAGGGGC | 827 PBM fluorescence, median of replicate spots | 
7 | Table S2 A row 167 (dsDNA) DNA 1: GACAATGAGCGCACAGGATGTGGTTTGGCGGCAGGG DNA 2: CCCTGCCGCCAAACCACATCCTGTGCGCTCATTGTC |  | 33400 PBM fluorescence, median of replicate spots
8 | Table S3 C row 16 (dsDNA) DNA 1: GCTAGATGAAGCCCCTTTCCTGTTGCTGCCTACATT DNA 2: AATGTAGGCAGCAACAGGAAAGGGGCTTCATCTAGC | 818 PBM fluorescence, median of replicate spots | 
9 | Table S3 C row 88 (dsDNA) DNA 1: TCTCACGTAGACGCGCGGAAACACTAACGAGTTGAA DNA 2: TTCAACTCGTTAGTGTTTCCGCGCGTCTACGTGAGA | 840 PBM fluorescence, median of replicate spots | 
10 | Table S3 C row 42 (dsDNA) DNA 1: CTTTGGCAGCAAGAACATCCGTTCTCTGTTCTTTGC DNA 2: GCAAAGAACAGAGAACGGATGTTCTTGCTGCCAAAG | 821 PBM fluorescence, median of replicate spots | 
11 | Table S3 C row 115 (dsDNA) DNA 1: GCCACCAGAGGGCGCCGGAAGTCCTGACCCATTGTC DNA 2: GACAATGGGTCAGGACTTCCGGCGCCCTCTGGTGGC | 838 PBM fluorescence, median of replicate spots | 
12 | Table S3 C row 63 (dsDNA) DNA 1: GCACTGAGGCTGACCCGGAAGTTTAAATTACGCTCC DNA 2: GGAGCGTAATTTAAACTTCCGGGTCAGCCTCAGTGC | 812 PBM fluorescence, median of replicate spots | 
13 | Table S2 A row 270 (dsDNA) DNA 1: CTCATTGACAGGAAGTCTAACCACAGGCTTAGGCCC DNA 2: GGGCCTAAGCCTGTGGTTAGACTTCCTGTCAATGAG |  | 29200 PBM fluorescence, median of replicate spots
14 | Table S3 C row 37 (dsDNA) DNA 1: ACCCTCTGTTTTGAGCTTCCGGTAGAGGCTGGTAGG DNA 2: CCTACCAGCCTCTACCGGAAGCTCAAAACAGAGGGT | 852 PBM fluorescence, median of replicate spots | 
15 | Table S3 C row 134 (dsDNA) DNA 1: GGGCAGAAGCACACAAGGAAGTGTTTCTGGGACAGA DNA 2: TCTGTCCCAGAAACACTTCCTTGTGTGCTTCTGCCC | 813 PBM fluorescence, median of replicate spots | 
16 | Table S2 A row 1460 (dsDNA) DNA 1: TAGCCACTAACCGGAAACGTTAAACCACAGCTCCGT DNA 2: ACGGAGCTGTGGTTTAACGTTTCCGGTTAGTGGCTA |  | 56100 PBM fluorescence, median of replicate spots
17 | Table S2 A row 706 (dsDNA) DNA 1: TAGCCACGAACCGGAAACGTTAAACCACAGCTCCGT DNA 2: ACGGAGCTGTGGTTTAACGTTTCCGGTTCGTGGCTA |  | 46400 PBM fluorescence, median of replicate spots
18 | Table S2 A row 280 (dsDNA) DNA 1: CCTGCAGCAACAGGATGTGGTTTGAAAGGATGAAAG DNA 2: CTTTCATCCTTTCAAACCACATCCTGTTGCTGCAGG |  | 32100 PBM fluorescence, median of replicate spots
19 | Table S3 C row 183 (dsDNA) DNA 1: CGCCCCAATGTTCGGCGGAAGGGAGGGAGGGTCTCC DNA 2: GGAGACCCTCCCTCCCTTCCGCCGAACATTGGGGCG | 835 PBM fluorescence, median of replicate spots | 
20 | Table S2 A row 393 (dsDNA) DNA 1: CTGACGCATTTCCGGCCTTTGCGGTTGATCGGTCAT DNA 2: ATGACCGATCAACCGCAAAGGCCGGAAATGCGTCAG |  | 30800 PBM fluorescence, median of replicate spots
21 | Table S3 C row 68 (dsDNA) DNA 1: CCCTATTCGCAGAGGAGGAAGTGGAGGCTCTCCAGG DNA 2: CCTGGAGAGCCTCCACTTCCTCCTCTGCGAATAGGG | 829 PBM fluorescence, median of replicate spots | 
22 | Table S3 C row 64 (dsDNA) DNA 1: CTCCATCACTGTCGGAGGAAGTGGCATGCAGAGTGG DNA 2: CCACTCTGCATGCCACTTCCTCCGACAGTGATGGAG | 818 PBM fluorescence, median of replicate spots | 

Row | Binder | binding signal (RUNX1) | binding signal (ETS1:RUNX1)
23 | Table S2 A row 443 (dsDNA) DNA 1: CCATGCACAACAGGATGTGGTTAGACAGTCAAAATT DNA 2: AATTTTGACTGTCTAACCACATCCTGTTGTGCATGG |  | 29600 PBM fluorescence, median of replicate spots
24 | Table S3 C row 141 (dsDNA) DNA 1: CTCCAACCCTTGTCCCTTCCGCCTGCCACTGCAGGT DNA 2: ACCTGCAGTGGCAGGCGGAAGGGACAAGGGTTGGAG | 850 PBM fluorescence, median of replicate spots | 
25 | Table S2 A row 978 (dsDNA) DNA 1: ACTGAACAAACCGGATGTGGTTGCCACCTGCAATCT DNA 2: AGATTGCAGGTGGCAACCACATCCGGTTTGTTCAGT |  | 38500 PBM fluorescence, median of replicate spots
26 | Table S3 C row 182 (dsDNA) DNA 1: TCTGCAGAGGGTTCCCGGATACACCTTGCGAAGAAT DNA 2: ATTCTTCGCAAGGTGTATCCGGGAACCCTCTGCAGA | 844 PBM fluorescence, median of replicate spots | 
27 | Table S3 C row 171 (dsDNA) DNA 1: AGGAGACAAGCGCCACTTCCGGCAGCGAAGTCACTT DNA 2: AAGTGACTTCGCTGCCGGAAGTGGCGCTTGTCTCCT | 814 PBM fluorescence, median of replicate spots | 
28 | Table S3 C row 149 (dsDNA) DNA 1: CTCAAGGAGGTGGGACTTCCTGCTAGGTGGGCCGTG DNA 2: CACGGCCCACCTAGCAGGAAGTCCCACCTCCTTGAG | 829 PBM fluorescence, median of replicate spots | 
29 | Table S3 C row 136 (dsDNA) DNA 1: GAACTCAGTACAGGCCGGAAGTCGGGGTACGGGGCC DNA 2: GGCCCCGTACCCCGACTTCCGGCCTGTACTGAGTTC | 841 PBM fluorescence, median of replicate spots | 
30 | Table S3 C row 125 (dsDNA) DNA 1: TTCCATTCGATGATGCTTCCGTATGAATCCATTCAC DNA 2: GTGAATGGATTCATACGGAAGCATCATCGAATGGAA | 844 PBM fluorescence, median of replicate spots | 
31 | Table S3 C row 73 (dsDNA) DNA 1: CCCAGATCACATGACAGGAAGGCAAAGTCCTCAGGT DNA 2: ACCTGAGGACTTTGCCTTCCTGTCATGTGATCTGGG | 850 PBM fluorescence, median of replicate spots | 
32 | Table S2 A row 1759 (dsDNA) DNA 1: CCTGTTGATAAAACAGGATGTGGTAAAGAAGCTGGC DNA 2: GCCAGCTTCTTTACCACATCCTGTTTTATCAACAGG |  | 43300 PBM fluorescence, median of replicate spots
33 | Table S3 C row 177 (dsDNA) DNA 1: TCTCCTACTCCTGCGCGGATGCTCTAGGCCGCTTGC DNA 2: GCAAGCGGCCTAGAGCATCCGCGCAGGAGTAGGAGA | 846 PBM fluorescence, median of replicate spots | 
34 | Table S3 C row 186 (dsDNA) DNA 1: GCTTTCTGGACTACACTTCCCAGAAGCCTCTAGGCC DNA 2: GGCCTAGAGGCTTCTGGGAAGTGTAGTCCAGAAAGC | 826 PBM fluorescence, median of replicate spots | 
35 | Table S3 C row 199 (dsDNA) DNA 1: TATCTGAGGAGTGGCAGGAAGTCTGGGGTGACTTTT DNA 2: AAAAGTCACCCCAGACTTCCTGCCACTCCTCAGATA | 815 PBM fluorescence, median of replicate spots | 
36 | Table S3 C row 30 (dsDNA) DNA 1: ACCGACCTGCCTCGCCGGAACTCCTCGCGCATCGCC DNA 2: GGCGATGCGCGAGGAGTTCCGGCGAGGCAGGTCGGT | 816 PBM fluorescence, median of replicate spots | 
37 | Table S3 C row 175 (dsDNA) DNA 1: CTGCGCGGCCCACCCCGGATGTCAGCCCCACGCGCC DNA 2: GGCGCGTGGGGCTGACATCCGGGGTGGGCCGCGCAG | 823 PBM fluorescence, median of replicate spots | 
38 | Table S3 C row 19 (dsDNA) DNA 1: TCCAGACCTCCCCGTCTTCCGGCTGCCCTGAACGTC DNA 2: GACGTTCAGGGCAGCCGGAAGACGGGGAGGTCTGGA | 812 PBM fluorescence, median of replicate spots | 
39 | Table S3 C row 60 (dsDNA) DNA 1: GGGGCTACTCGCAACAGGAAGTTCGGCCCTTAAAAA DNA 2: TTTTTAAGGGCCGAACTTCCTGTTGCGAGTAGCCCC | 839 PBM fluorescence, median of replicate spots | 
40 | Table S2 A row 1371 (dsDNA) DNA 1: GAACCTGGGAGGCGGAAGTTGCGGTTAGCCGAGATC DNA 2: GATCTCGGCTAACCGCAACTTCCGCCTCCCAGGTTC |  | 64700 PBM fluorescence, median of replicate spots
41 | Table S3 C row 189 (dsDNA) DNA 1: TCGCTGATGGCGTCATTTCCGTGAGTCATCTGAGGG DNA 2: CCCTCAGATGACTCACGGAAATGACGCCATCAGCGA | 823 PBM fluorescence, median of replicate spots | 
42 | Table S2 A row 1217 (dsDNA) DNA 1: TGGGGGATGGCAGCAGGATGTGGTTATCTCAGAAAG DNA 2: CTTTCTGAGATAACCACATCCTGCTGCCATCCCCCA |  | 29000 PBM fluorescence, median of replicate spots
43 | Table S2 A row 327 (dsDNA) DNA 1: AATTGAGACAGGAAATGTTGGTTTGTGGTCAGGCAC DNA 2: GTGCCTGACCACAAACCAACATTTCCTGTCTCAATT |  | 28000 PBM fluorescence, median of replicate spots
